We go through 1 substance from patent publication US20100291074.

The target of data set [1] is Aβ42 (aggregation state not stated at the place of use) (UniProt P05067).
Data set [2] deals with Aβ (amyloid beta peptide, length and aggregation state not specified; ˜4 kDa band) (UniProt P05067).
Chain of Aβ (amyloid beta peptide, length and aggregation state not specified; ˜4 kDa band) (P05067 whole entry, looked up, tested part not stated): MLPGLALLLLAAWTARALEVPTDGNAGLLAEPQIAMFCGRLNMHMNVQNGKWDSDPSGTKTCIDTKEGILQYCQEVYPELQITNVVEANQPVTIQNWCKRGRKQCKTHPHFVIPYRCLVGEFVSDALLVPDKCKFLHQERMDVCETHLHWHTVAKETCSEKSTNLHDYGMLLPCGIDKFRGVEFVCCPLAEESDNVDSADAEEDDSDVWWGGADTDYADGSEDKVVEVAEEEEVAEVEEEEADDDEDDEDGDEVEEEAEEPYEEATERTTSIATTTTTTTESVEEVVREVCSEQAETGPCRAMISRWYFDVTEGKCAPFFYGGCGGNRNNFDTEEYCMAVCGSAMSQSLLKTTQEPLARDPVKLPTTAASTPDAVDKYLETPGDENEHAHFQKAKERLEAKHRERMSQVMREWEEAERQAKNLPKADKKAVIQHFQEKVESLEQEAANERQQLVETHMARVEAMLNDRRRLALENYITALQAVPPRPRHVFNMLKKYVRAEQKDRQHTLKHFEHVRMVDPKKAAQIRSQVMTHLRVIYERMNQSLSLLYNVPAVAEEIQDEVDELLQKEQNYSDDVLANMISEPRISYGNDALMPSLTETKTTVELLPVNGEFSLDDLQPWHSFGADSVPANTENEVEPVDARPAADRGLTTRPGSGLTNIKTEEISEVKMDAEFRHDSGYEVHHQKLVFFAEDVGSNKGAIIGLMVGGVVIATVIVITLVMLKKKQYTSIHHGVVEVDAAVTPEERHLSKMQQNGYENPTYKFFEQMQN

Chain of mouse CypD, endogenous, in brain mitochondria and cultured cortical neurons of nonTg and Tg mAPP mice (chain, as listed by the source): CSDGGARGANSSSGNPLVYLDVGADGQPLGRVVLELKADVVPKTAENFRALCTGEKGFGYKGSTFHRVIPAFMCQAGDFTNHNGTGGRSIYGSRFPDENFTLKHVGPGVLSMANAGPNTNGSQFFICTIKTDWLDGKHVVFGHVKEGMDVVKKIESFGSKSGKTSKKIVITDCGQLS
Chain of Aβ42 (aggregation state not stated at the place of use) (P05067 whole entry, looked up): as the sequence (P05067 whole entry, looked up, tested part not stated) above

Regarding “mouse CypD, endogenous, in brain mitochondria and cultured cortical neurons of nonTg and Tg mAPP mice”, the “Aβ-mediated swelling of isolated cortical mitochondria, diminished in mitochondria lacking CypD, Aβ 1.6 µM” value in data set [1] is on record as “˜60%”. In addition, the “cytochrome c release into the supernatant from isolated mitochondria treated with Aβ” value in data set [2] is on record as “increased levels of cytochrome c release into the supernatant in nonTg-derived mitochondria treated with Aβ”.
